# Measurements published in patent US20180037644A1 (Pfizer, published 2018).
# Like-named read-outs stand apart in the source and are kept apart here.
# B1: IL33-310 (antibody, human IgG4 S228P, kappa, V domains shown)
# VH: EVQLVESGGGLVQPGGSLRLSCAASGFTFSSFSMSWVRQAPGKGLEWVATISGGKTFTDYVDSVKGRFTISRDDSKNTLYLQMNSLRAEDTAVYYCTRANYGNWFFEVWGQGTLVTVSS
# VL: EIVLTQSPATLSLSPGERATLSCRASESVAKYGLSLLNWFQQKPGQPPRLLIFAASNRGSGIPARFSGSGSGTDFTLTISSLEPEDFAVYYCQQSKEVPFTFGQGTKVEIKR
# B2: IL33-10 (antibody, human IgG1, kappa)
# heavy: not shown
# light: DIQMTQSPSSLSASVGDRVTITCKASQNINKHLDWYQQKPGKAPKLLIYFTNNLQTGVPSRFSGSGSGTDFTLTISSLQPEDFATYYCFQYNNGWTFGGGTKVEIKRTVAAPSVFIFPPSDEQLKSGTASVVCLLNNFYPREAKVQWKVDNALQSGNSQESVTEQDSKDSTYSLSSTLTLSKADYEKHKVYACEVTHQGLSSPVTKSFNRGEC
# B3: IL33-167LS (antibody, human IgG1, kappa)
# heavy: EVQLVESGGGLVQPGGSLRLSCAASGFTFSSYWMYWVRQAPGKGLEWVASITPNAGEDYYPDSVKGRFTISRDNAKNSLYLQMNSLRAEDTAVYYCARGHYYYTSYSLGYWGQGTLVTVSSASTKGPSVFPLAPSSKSTSGGTAALGCLVKDYFPEPVTVSWNSGALTSGVHTFPAVLQSSGLYSLSSVVTVPSSSLGTQTYICNVNHKPSNTKVDKKVEPKSCDKTHTCPPCPAPEAAGAPSVFLFPPKPKDTLMISRTPEVTCVVVDVSHEDPEVKFNWYVDGVEVHNAKTKPREEQYNSTYRVVSVLTVLHQDWLNGKEYKCKVSNKALPAPIEKTISKAKGQPREPQVYTLPPSREEMTKNQVSLTCLVKGFYPSDIAVEWESNGQPENNYKTTPPVLDSDGSFFLYSKLTVDKSRWQQGNVFSCSVLHEALHSHYTQKSLSLSPG
# light: DIQMTQSPSSLSASVGDRVTITCKASQNINKHLDWYQQKPGKAPKLLIYFTNNLQTGVPSRFSGSGSGTDFTLTISSLQPEDFATYYCFQYNNGWTFGGGTKVEIKRTVAAPSVFIFPPSDEQLKSGTASVVCLLNNFYPREAKVQWKVDNALQSGNSQESVTEQDSKDSTYSLSSTLTLSKADYEKHKVYACEVTHQGLSSPVTKSFNRGEC
# B4: IL33-265 Fab (Fab, V domains shown)
# VH: EVQLVESGGNLEQPGGSLRLSCTASGFTFSRSAMNWVRRAPGKGLEWVSGISGSGGRTYYADSVKGRFTISRDNSKNTLYLQMNSLSAEDTAAYYCAKDSYTTSWYGGMDVWGHGTTVTVSS
# VL: DIQMTQSPSSVSASVGDRVTITCRASQGIFSWLAWYQQKPGKAPKLLIYAASSLQSGVPSRFSGSGSGTDFTLTISSLQPEDFAIYYCQQANSVPITFGQGTRLEIKR
# notes: Fab fragment
# Assays:
# [1] = target: T1, human IL-33 (mm2) (human, UniProt O95760 112-270); experiment: cell-based or functional assay
# T1 chain: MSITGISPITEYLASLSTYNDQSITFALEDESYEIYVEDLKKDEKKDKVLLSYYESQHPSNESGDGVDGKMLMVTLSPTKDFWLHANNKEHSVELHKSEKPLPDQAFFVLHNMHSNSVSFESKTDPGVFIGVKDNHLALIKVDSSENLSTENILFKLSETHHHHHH
# [2] = target: T2, human IL-33 WT (R&D) (human, UniProt O95760 112-270); experiment: cell-based or functional assay
# T2 sequence: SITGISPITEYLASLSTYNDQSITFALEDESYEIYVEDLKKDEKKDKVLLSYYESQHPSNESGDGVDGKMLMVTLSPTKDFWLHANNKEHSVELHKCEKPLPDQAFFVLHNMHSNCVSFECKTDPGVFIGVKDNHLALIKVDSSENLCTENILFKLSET
# [3] = target: T3, wild-type cynomolgus monkey IL-33 (cynomolgus monkey); experiment: cell-based or functional assay
# T3 chain: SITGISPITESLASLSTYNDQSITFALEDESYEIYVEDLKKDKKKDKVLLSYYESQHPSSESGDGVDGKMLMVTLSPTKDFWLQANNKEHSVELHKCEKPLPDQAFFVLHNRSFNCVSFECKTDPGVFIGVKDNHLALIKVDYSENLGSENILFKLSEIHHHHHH
# [4] = target: T4, cynomolgus monkey IL-33 (cys mut) (cynomolgus monkey); experiment: cell-based or functional assay
# T4 chain: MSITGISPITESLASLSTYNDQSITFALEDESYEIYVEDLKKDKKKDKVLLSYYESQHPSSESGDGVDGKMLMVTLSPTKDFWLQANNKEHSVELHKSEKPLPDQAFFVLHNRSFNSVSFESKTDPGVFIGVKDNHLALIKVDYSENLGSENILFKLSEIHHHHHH
# [5] = target: T1, human IL-33 (mm2); experiment: cell-based or functional assay
# [6] = target: T2, human IL-33 WT (R&D); experiment: cell-based or functional assay; remark: listed apart in the source
# [7] = target: T3, wild-type cynomolgus monkey IL-33; experiment: cell-based or functional assay
# [8] = target: T4, cynomolgus monkey IL-33 (cys mut); experiment: cell-based or functional assay
# [9] = target: T1, human IL-33 (mm2); experiment: cell-based or functional assay
# [10] = target: T2, human IL-33 WT (R&D); experiment: cell-based or functional assay; remark: listed apart in the source
# [11] = target: T4, cynomolgus monkey IL-33 (cys mut); experiment: cell-based or functional assay
# [12] = target: T1, human IL-33 (mm2); experiment: cell-based or functional assay
# [13] = target: T4, cynomolgus monkey IL-33 (cys mut); experiment: cell-based or functional assay
# [14] = target: T1, human IL-33 (mm2); experiment: cell-based or functional assay
# [15] = target: T1, human IL-33 (mm2); experiment: cell-based or functional assay
# [16] = target: T2, human IL-33 WT (R&D); experiment: cell-based or functional assay; remark: listed apart in the source
# [17] = target: T4, cynomolgus monkey IL-33 (cys mut); experiment: cell-based or functional assay
# [18] = target: T1, human IL-33 (mm2); experiment: cell-based or functional assay
# [19] = target: T2, human IL-33 WT (R&D); experiment: cell-based or functional assay; remark: listed apart in the source
# [20] = target: T5, human IL-33 WT, reduced with DTT (human, UniProt O95760 112-270); experiment: SPR, IL-33 amine-coupled to CM5, Fab in solution, 37 C, Experiment 2
# T5 construct: Wild-type cysteines, FLAG tag in the entry; reduced with 3 mM DTT before use; also called huIL33 wt; hu IL-33 (WT + DTT)
# T5 sequence: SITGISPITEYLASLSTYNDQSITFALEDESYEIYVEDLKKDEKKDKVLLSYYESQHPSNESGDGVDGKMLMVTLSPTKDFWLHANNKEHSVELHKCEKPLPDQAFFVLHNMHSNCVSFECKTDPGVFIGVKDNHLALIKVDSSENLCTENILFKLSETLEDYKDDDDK
# Procedure: (§1) Biacore kinetic assays were conducted at 37° C. at a collection rate of 1 Hz on a Biacore T200 instrument (GE Healthcare). Reduced and non-reduced wild-type human IL-33 and reduced wild-type cynomolgus monkey IL-33 were covalently coupled to a CM5 sensor chip (catalogue number BR100530, GE Healthcare) using an amine coupling kit (catalogue number BR100050, GE Healthcare) according to the manufacturer's protocol. Flow cell 1 was activated and blocked for use as a reference flow cell. […] The dilution and running buffer was HBS-EP+(10 mM HEPES pH 7.4, 0.15M NaCl, 3 mM EDTA, 0.05% P-20). Rate constants and affinities were determined by fitting the resulting sensorgram data to a 1:1 model in Biacore T200 Evaluation software version 1.0 (GE Healthcare). […] Kinetic properties of the bivalent IgG cannot be directly compared to those of monovalent Fab fragments and are not presented here.
# [21] = target: T3, wild-type cynomolgus monkey IL-33; experiment: as above
# Procedure: as §1
# [22] = target: T3, wild-type cynomolgus monkey IL-33; experiment: SPR, Experiment 2; reference: human IL-33 (WT + DTT)
# Procedure: as §1
binder,measurement,setting,value
B1,"IC50, HEK293 ST2 NFkB",[1],0.018 nM
same,"IC50, HEK293 ST2 NFkB (DTT-pretreated IL-33)",[2],0.061 nM
same,Cynomolgus monkey:human IC50 ratio: wild-type IL-33,[3],27.1
same,"IC50, HEK293 ST2 NFkB (DTT-pretreated IL-33)",[3],1.64 nM
same,Cynomolgus monkey:human IC50 ratio: cysteine mutant IL-33,[4],32.5
same,"IC50, HEK293 ST2 NFkB",[4],0.59 nM
same,"IC50, HEK293 ST2 NFkB",[5],0.007 nM
same,"IC50, HEK293 ST2 NFkB",[6],0.021 nM
same,Cynomolgus monkey:human IC50 ratio: wild-type IL-33,[7],104
same,"IC50, HEK293 ST2 NFkB",[7],2.19 nM
same,Cynomolgus monkey:human IC50 ratio: cysteine mutant IL-33,[8],29.2
same,"IC50, HEK293 ST2 NFkB",[8],0.213 nM
B2,"IC50, HEK293 ST2 NFkB mm2",[9],0.031 nM
same,"IC50, whole blood IFNγ",[9],0.121 nM
same,"IC50, HEK293 ST2 NFkB WT IL-33",[10],0.117 nM
same,"IC50, HEK293 ST2 NFkB cyno IL-33",[11],0.059 nM
same,"IC50, HEK293 ST2 NFkB",[12],0.017 nM
same,"IC50, HEK293 ST2 NFkB",[13],0.132 nM
B3,"IC50, IFN-γ production in human PBMC",[14],0.0011 nM
same,"IC50, HEK293 ST2 NFkB",[1],0.037 nM
same,"IC50, HEK293 ST2 NFkB (DTT-pretreated IL-33)",[2],0.25 nM
same,Cynomolgus monkey:human IC50 ratio: wild-type IL-33,[3],6.2
same,"IC50, HEK293 ST2 NFkB (DTT-pretreated IL-33)",[3],1.56 nM
same,Cynomolgus monkey:human IC50 ratio: cysteine mutant IL-33,[4],1
same,"IC50, HEK293 ST2 NFkB",[4],0.036 nM
same,"IC50, HEK293 ST2 NFkB",[15],0.13 nM
same,"IC50, HEK293 ST2 NFkB",[16],0.685 nM
same,"IC50, HEK293 ST2 NFkB",[17],0.162 nM
same,"IC50, human whole blood",[18],0.013 nM
same,"IC50, human whole blood",[19],0.451 nM
B4,Kd,[20],0.028 nM
same,koff,[20],8.07e-05 s⁻¹
same,kon,[20],2.89e+06 M⁻¹ s⁻¹
same,Kd,[21],1.62 nM
same,koff,[21],0.0038 s⁻¹
same,kon,[21],2.58e+06 M⁻¹ s⁻¹
same,Ratio of cynomolgus monkey KD/human KD,[22],57.8
